In article PMC10516938, “Conformational dynamics of cohesin/Scc2 loading complex are regulated by Smc3 acetylation and ATP binding” (Nature Communications, 2023):

Target: T1, Smc3^E1155Q Q67C K1004C (S. cerevisiae, UniProt P47037 1-1230, Q67C | K1004C | E1155Q)
T1 construct: Smc3, S. cerevisiae, ATP hydrolysis mutant; source: S. cerevisiae W303, late G1 arrested cells, whole-cell extract
T1 sequence (looked up): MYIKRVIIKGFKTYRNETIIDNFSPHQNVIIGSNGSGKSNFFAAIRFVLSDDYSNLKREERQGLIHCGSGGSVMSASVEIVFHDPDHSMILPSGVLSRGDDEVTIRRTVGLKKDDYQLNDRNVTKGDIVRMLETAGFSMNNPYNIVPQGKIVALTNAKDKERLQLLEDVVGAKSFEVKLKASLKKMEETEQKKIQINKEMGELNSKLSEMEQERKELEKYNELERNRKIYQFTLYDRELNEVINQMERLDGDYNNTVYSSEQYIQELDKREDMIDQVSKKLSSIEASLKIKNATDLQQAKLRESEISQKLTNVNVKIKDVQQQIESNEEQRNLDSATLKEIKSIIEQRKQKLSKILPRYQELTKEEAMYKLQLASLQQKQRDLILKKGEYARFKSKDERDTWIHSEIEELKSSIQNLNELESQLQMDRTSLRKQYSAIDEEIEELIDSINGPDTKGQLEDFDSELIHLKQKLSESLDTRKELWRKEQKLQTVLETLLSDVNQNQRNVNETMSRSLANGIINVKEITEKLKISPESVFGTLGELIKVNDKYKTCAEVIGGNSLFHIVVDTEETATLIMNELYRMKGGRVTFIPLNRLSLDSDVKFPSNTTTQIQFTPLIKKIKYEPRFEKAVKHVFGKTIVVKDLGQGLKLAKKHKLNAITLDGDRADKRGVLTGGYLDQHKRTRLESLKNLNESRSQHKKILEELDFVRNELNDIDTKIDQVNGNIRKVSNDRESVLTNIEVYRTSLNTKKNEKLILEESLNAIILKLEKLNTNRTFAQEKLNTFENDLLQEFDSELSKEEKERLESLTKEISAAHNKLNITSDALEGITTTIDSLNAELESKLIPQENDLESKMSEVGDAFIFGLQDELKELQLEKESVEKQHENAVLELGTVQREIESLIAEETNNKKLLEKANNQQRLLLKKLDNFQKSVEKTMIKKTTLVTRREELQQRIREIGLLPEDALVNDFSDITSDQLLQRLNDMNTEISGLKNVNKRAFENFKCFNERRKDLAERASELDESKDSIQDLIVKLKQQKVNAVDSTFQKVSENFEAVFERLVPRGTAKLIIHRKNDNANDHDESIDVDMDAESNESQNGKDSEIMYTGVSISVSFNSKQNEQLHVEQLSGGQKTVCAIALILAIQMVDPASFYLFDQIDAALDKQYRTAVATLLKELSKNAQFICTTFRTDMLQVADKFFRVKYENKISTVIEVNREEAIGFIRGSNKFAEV
Experiment: cross-linking; in vivo BMOE cross-link of cysteine pairs in yeast cells arrested in late G1 by non-degradable Sic1(9m); Scc1-PK immunoprecipitated, western blot, band intensities quantified
Settings: partners not purified

B1: Scc2 D369C T1175C (natural protein, S. cerevisiae, UniProt Q04002 1-1493, looked up)
chain: MSYPGKDKNIPGRIIEALEDLPLSYLVPKDGLAALVNAPMRVSLPFDKTIFTSADDGRDVNINVLGTANSTTSSIKNEAEKERLVFKRPSNFTSSANSVDYVPTNFLEGLSPLAQSVLSTHKGLNDSINIEKKSEIVSRPEAKHKLESVTSNAGNLSFNDNSSNKKTKTSTGVTMTQANLAEQYLNDLKNILDIVGFDQNSAEIGNIEYWLQLPNKKFVLTTNCLTKLQMTIKNITDNPQLSNSIEITWLLRLLDVMVCNIKFSKSSLKMGLDDSMLRYIALLSTIVLFNIFLLGKNDSNLHRESYIMEPVNFLSDLIESLKILTIEYGSLKIEFDTFQEALELLPKYIRNGPFLDDNVTAKLVYIFSCLLMNNDIEATTNIQFQSFWDNVKRISSDILVSLFGSFDQQRGFIIEELLSHIEKLPTKRIQKKLRKVGNQNIYITDFTFTLMSMLENINCYSFCNQMKDIAPENIDLLKNEYKKQEEFLFNIVEHINDTILERFFKNPSALRYVIDNFVQDLLLLISSPQWPVTEKILSSLLKRLLSVYSPSMQVSANIETICLQLIGNIGSTIFDIKCSTRDHEDNNLIKMINYPETLPHFFKSFEECIAYNETIKCRRSATRFLWNLRLGTILILEEYTKDAKEQIITVDNELKKILEQIKDGGLGPELENREADFSTIKLDYFSILHAFELLNLYDPYLKLILSLLAKDKIKLRSTAIKCLSMLASKDKVILSNPMVKETIHRRLNDSSASVKDAILDLVSINSSYFEFYQQINNNYNDDSIMVRKHVLRINEKMYDETNDIVTKVYVIARILMKIEDEEDNIIDMARLILLNRWILKVHEVLDQPEKLKEISSSVLLVMSRVAIMNEKCSQLFDLFLNFYLLNKEAHSKEAYDKITHVLTILTDFLVQKIVELNSDDTNEKNSIVDKQNFLNLLAKFADSTVSFLTKDHITALYPYMVSDEKSDFHYYILQVFRCTFEKLANFKQKFLYDLETTLLSRLPKMNVREIDEAMPLIWSVATHRHDTARVAKACSSCLSHLHPYINKANNEEAAIVVDGKLQRLIYLSTGFARFCFPKPSNDKIAFLQEGETLYEHITKCLLVLSKDKITHVIRRVAVKNLTKLCGNHPKLFNSRHVLHLLDKEFQSDQLDIKLVILESLYDLFLLEERKSVRNCGVNSTLSSNSILKKKLLKTNRVEFANDGVCSALATRFLDNILQLCLLRDLKNSLVAIRLLKLILKFGYTNPSHSIPTVIALFASTSQYIRHVAYELLEDLFEKYETLVFSSLSRGVTKAIHYSIHTDEKYYYKHDHFLSLLEKLCGTGKKNGPKFFKVLKRIMQSYLDDITDLTSTNSSVQKSIFVLCTNISNITFVSQYDLVSLLKTIDLTTDRLKEVIMDEIGDNVSSLSVSEEKLSGIILIQLSLQDLGTYLLHLYGLRDDVLLLDIVEESELKNKQLPAKKPDISKFSAQLENIEQYSSNGKLLTYFRKHVKDT
notes: Scc2, S. cerevisiae; source: S. cerevisiae W303, late G1 arrested cells, whole-cell extract
  double crosslink band relative to that of smc3 S72C K1004C E1155Q with scc2 E819C D369C: ~15%
